In publication PMC4833857:

Target: Kluyveromyces marxianus Tor (KmTor), full-length (Kluyveromyces marxianus)
Test: SEC-MALS; 100 µl of 1 mg/ml KmTor-Lst8 complex on Superdex S200 10/300, 50 mM Tris pH 8.8 (23 °C), 300 mM NaCl, 0.3% CHAPS, 1 mM TCEP

Chain of Kluyveromyces marxianus Tor (KmTor), full-length (Kluyveromyces marxianus) (main, as listed by the source): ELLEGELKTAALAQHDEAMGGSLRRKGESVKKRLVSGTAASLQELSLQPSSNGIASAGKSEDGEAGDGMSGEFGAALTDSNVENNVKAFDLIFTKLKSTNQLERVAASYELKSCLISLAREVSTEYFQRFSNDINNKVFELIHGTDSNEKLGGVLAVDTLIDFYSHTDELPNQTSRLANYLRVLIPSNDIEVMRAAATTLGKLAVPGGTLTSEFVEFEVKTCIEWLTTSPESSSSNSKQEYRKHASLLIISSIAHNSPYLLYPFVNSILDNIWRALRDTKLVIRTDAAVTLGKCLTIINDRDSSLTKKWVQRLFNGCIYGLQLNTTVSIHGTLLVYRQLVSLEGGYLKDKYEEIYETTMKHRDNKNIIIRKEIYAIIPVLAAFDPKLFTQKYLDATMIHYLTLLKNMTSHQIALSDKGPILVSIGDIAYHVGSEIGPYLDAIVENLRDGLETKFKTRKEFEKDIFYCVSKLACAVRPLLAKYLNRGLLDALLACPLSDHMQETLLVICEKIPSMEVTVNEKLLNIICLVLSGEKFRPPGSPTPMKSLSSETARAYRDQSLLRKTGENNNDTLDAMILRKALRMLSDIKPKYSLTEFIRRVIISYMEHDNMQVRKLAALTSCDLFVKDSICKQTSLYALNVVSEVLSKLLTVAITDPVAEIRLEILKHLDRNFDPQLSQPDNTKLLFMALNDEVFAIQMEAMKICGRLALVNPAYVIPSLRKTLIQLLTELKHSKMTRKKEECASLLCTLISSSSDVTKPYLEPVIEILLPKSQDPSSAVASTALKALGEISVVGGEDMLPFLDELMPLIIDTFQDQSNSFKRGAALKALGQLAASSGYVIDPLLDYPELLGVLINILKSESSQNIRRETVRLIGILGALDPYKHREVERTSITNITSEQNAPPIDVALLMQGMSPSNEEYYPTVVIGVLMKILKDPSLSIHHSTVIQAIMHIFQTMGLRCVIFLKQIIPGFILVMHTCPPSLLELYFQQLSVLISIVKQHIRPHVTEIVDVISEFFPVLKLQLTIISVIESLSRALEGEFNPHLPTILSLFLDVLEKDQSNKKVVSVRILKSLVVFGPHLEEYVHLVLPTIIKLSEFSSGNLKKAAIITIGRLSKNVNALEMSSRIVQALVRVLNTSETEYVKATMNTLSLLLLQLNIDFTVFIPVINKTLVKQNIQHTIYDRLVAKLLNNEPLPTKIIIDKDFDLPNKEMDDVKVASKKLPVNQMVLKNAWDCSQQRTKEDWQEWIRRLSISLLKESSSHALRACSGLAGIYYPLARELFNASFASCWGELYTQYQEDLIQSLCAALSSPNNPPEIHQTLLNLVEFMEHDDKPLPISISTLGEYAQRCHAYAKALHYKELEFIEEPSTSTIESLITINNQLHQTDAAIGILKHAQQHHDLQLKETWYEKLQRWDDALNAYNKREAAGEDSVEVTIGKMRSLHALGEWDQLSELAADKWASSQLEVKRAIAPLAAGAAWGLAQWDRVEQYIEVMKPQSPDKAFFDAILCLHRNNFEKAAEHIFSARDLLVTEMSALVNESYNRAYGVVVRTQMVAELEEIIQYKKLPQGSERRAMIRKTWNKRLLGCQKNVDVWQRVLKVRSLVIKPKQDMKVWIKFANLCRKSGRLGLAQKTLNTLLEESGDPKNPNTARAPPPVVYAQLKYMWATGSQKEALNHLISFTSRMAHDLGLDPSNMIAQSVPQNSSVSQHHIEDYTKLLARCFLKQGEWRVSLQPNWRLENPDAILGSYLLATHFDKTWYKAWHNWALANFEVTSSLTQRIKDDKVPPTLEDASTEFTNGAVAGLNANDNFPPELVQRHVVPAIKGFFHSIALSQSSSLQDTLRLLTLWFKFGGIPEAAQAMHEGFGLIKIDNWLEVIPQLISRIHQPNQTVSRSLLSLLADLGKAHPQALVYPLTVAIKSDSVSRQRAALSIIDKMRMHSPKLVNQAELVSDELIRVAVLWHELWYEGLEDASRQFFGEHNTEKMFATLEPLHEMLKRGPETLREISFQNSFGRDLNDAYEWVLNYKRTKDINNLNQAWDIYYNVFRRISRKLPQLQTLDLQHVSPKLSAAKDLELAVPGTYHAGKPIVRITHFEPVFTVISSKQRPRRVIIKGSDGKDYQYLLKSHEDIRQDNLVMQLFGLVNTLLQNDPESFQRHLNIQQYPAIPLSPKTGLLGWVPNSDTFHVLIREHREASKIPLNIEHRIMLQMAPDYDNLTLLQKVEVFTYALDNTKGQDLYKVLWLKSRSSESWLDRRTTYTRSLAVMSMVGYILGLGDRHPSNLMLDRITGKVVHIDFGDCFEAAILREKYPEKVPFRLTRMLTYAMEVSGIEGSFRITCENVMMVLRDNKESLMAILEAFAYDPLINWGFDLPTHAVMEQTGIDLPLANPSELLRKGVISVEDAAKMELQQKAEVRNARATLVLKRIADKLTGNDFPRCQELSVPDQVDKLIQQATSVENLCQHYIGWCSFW

| Substance | stoichiometry N |
| --- | --- |
| Kluyveromyces marxianus Lst8 (KmLst8), full-length (natural protein) | 1 |
| Kluyveromyces marxianus Tor (KmTor), full-length | 2 |
